Reference: IntAct's records for PubMed 35512704

B1: Speckle-type POZ protein (Homo sapiens), O43791 (parent)
chain: MSRVPSPPPPAEMSSGPVAESWCYTQIKVVKFSYMWTINNFSFCREEMGEVIKSSTFSSGANDKLKWCLRVNPKGLDEESKDYLSLYLLLVSCPKSEVRAKFKFSILNAKGEETKAMESQRAYRFVQGKDWGFKKFIRRDFLLDEANGLLPDDKLTLFCEVSVVQDSVNISGQNTMNMVKVPECRLADELGGLWENSRFTDCCLCVAGQEFQAHKAILAARSPVFSAMFEHEMEESKKNRVEINDVEPEVFKEMMCFIYTGKAPNLDKMADDLLAAADKYALERLKVMCEDALCSNLSVENAAEILILADLHSADQLKTQAVDFINYHASDVLETSGWKSMVVSHPHLVAEAYRSLASAQCPFLGPPRKRLKQS
partner: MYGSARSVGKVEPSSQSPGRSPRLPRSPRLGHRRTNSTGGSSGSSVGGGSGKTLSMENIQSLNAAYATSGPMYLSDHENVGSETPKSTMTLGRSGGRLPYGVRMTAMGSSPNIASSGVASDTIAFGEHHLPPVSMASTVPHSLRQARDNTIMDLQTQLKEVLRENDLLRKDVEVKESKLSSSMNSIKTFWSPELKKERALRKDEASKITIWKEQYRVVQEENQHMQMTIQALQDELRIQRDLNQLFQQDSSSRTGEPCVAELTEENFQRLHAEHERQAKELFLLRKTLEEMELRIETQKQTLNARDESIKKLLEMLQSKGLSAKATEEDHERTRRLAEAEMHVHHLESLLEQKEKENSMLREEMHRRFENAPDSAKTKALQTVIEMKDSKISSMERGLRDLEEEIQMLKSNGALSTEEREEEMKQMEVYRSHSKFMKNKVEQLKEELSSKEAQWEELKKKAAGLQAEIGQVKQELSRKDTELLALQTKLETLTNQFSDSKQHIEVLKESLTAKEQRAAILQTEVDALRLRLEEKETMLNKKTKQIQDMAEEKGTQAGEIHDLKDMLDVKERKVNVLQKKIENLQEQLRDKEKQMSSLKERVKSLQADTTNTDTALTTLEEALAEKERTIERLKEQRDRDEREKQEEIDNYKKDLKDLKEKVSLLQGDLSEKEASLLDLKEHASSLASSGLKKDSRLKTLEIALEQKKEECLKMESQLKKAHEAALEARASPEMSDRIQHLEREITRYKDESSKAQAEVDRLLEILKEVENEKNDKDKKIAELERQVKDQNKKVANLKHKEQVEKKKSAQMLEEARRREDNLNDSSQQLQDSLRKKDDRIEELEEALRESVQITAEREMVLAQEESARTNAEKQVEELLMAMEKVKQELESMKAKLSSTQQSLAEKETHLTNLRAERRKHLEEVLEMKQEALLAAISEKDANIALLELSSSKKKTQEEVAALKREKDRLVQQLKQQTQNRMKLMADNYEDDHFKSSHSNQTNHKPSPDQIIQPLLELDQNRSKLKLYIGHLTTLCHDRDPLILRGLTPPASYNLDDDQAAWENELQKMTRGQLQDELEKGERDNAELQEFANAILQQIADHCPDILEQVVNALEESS

Variants of: B1
Settings: with rb6i2_human ERC1, Q8IUD2

Variant	effect of a mutation on the interaction
MSRVPSPPPPAEMSSGPVAESWCYTQIKVVKFSYMWTINNFSFCREEMGEVIKSSTFSSGANDKLKWCLRVNPKGLDEESKDYLSLYLLLVSCPKSEVRAKFKFSILNAKGEETKAMESQRAYRFVQGKDWGVKKFIRRDFLLDEANGLLPDDKLTLFCEVSVVQDSVNISGQNTMNMVKVPECRLADELGGLWENSRFTDCCLCVAGQEFQAHKAILAARSPVFSAMFEHEMEESKKNRVEINDVEPEVFKEMMCFIYTGKAPNLDKMADDLLAAADKYALERLKVMCEDALCSNLSVENAAEILILADLHSADQLKTQAVDFINYHASDVLETSGWKSMVVSHPHLVAEAYRSLASAQCPFLGPPRKRLKQS [F133V]	with no effect

Variants of: B1
Settings: with rb6i2_human ERC1, Q8IUD2
Remark: another data set of the same source

Variant	effect of a mutation on the interaction
MSRVPSPPPPAEMSSGPVAESWCYTQIKVVKFSYMWTINNFSFCREEMGEVIKSSTFSSGANDKLKWCLRVNPKGLDEESKDYLSLYLLLVSCPKSEVRAKFKFSILNAKGEETKAMESQRAYRFVQGKDWGLKKFIRRDFLLDEANGLLPDDKLTLFCEVSVVQDSVNISGQNTMNMVKVPECRLADELGGLWENSRFTDCCLCVAGQEFQAHKAILAARSPVFSAMFEHEMEESKKNRVEINDVEPEVFKEMMCFIYTGKAPNLDKMADDLLAAADKYALERLKVMCEDALCSNLSVENAAEILILADLHSADQLKTQAVDFINYHASDVLETSGWKSMVVSHPHLVAEAYRSLASAQCPFLGPPRKRLKQS [F133L]	with no effect

Variants of: B1
Settings: with rb6i2_human ERC1, Q8IUD2
Remark: another data set of the same source

Variant	effect of a mutation on the interaction
MSRVPSPPPPAEMSSGPVAESWCYTQIKVVKFSYMWTINNFSFCREEMGEVIKSSTFSSGANDKLKWCLRVNPKGLDEESKDYLSLCLLLVSCPKSEVRAKFKFSILNAKGEETKAMESQRAYRFVQGKDWGFKKFIRRDFLLDEANGLLPDDKLTLFCEVSVVQDSVNISGQNTMNMVKVPECRLADELGGLWENSRFTDCCLCVAGQEFQAHKAILAARSPVFSAMFEHEMEESKKNRVEINDVEPEVFKEMMCFIYTGKAPNLDKMADDLLAAADKYALERLKVMCEDALCSNLSVENAAEILILADLHSADQLKTQAVDFINYHASDVLETSGWKSMVVSHPHLVAEAYRSLASAQCPFLGPPRKRLKQS [Y87C]	with no effect

Variants of: B1
Settings: with rb6i2_human ERC1, Q8IUD2
Remark: another data set of the same source

Variant	effect of a mutation on the interaction
MSRVPSPPPPAEMSSGPVAESWCYTQIKVVKFSYMWTINNFSFCREEMGEVIKSSTFSSGANDKLKWCLRVNPKGLDEESKDYLSLYLLLVSCPKSEVRAKCKFSILNAKGEETKAMESQRAYRFVQGKDWGFKKFIRRDFLLDEANGLLPDDKLTLFCEVSVVQDSVNISGQNTMNMVKVPECRLADELGGLWENSRFTDCCLCVAGQEFQAHKAILAARSPVFSAMFEHEMEESKKNRVEINDVEPEVFKEMMCFIYTGKAPNLDKMADDLLAAADKYALERLKVMCEDALCSNLSVENAAEILILADLHSADQLKTQAVDFINYHASDVLETSGWKSMVVSHPHLVAEAYRSLASAQCPFLGPPRKRLKQS [F102C]	with no effect
